Patent publication US20220356229A1

How the values were obtained:
[1] = target: SARS-CoV-2 full length Spike protein, lineage B.1.1.7 (SARS-CoV-2)
[2] = target: SARS-CoV-2 full length Spike protein, lineage B.1.351 (SARS-CoV-2)

Row | Binder | bead assay binding signal [1] | bead assay binding signal [2]
1 | antibody 1037 (antibody, V domains shown) VH: QITLKESGPTLVKPTQTLTLTCTFSGFSLSTSGVGVGWIRQPPGKALEWLALIYWDDDKRYSPSLKSRLTITKDTSKNQVVLTMTNMDPVDTATYYCAHHTITRINDYWGQGTLVTVSS VL: QSALTQPASVSGSPGQSITISCTATSSDVGAYNYVSWYQQHPGKAPKLMIYDVSKRPSGVSNRFSGSKSGNTASLTISGLQAEDEADYYCSSYTSSSTVFGGGTKLTVLG | 749 | 985
2 | antibody 1404 (antibody, V domains shown) VH: QITLKESGPTLVKPTQTLTLTCTFSGFSLSISGVGVGWLRQPPGKALEWLALIYWDDDKRYSPSLKSRLTISKDTSKNQVVLKMTNIDPVDTATYYCAHHSISTIFDHWGQGTLVTVSS VL: QSALTQPASVSGSPGQSITISCTATSSDVGDYNYVSWYQQHPGKAPKLMIFEVSDRPSGISNRFSGSKSGNTASLTISGLQAEDEADYYCSSYTTSSAVFGGGTKLTVLG | 719 | 941
3 | antibody 896 (antibody, V domains shown) VH: EVQLVESGGGVVQPGGSLRLSCAASGFTFDDYAMHWVRQVPGKGLEWVSLISGDGGSTYYADSVKGRFTISRDNSKNSLYVQMNSLRTEDTALYYCVKDRGGSGWDLNHYYYGMDVWGQGTTVTVSS VL: DIQLTQSPSFLSASVGDRVTVTCRASQGISSYLAWYQQKPGKAPKLLIYAAYTLQSGVPSRFSGSGSETEFTLTISSLQPEDFATYYCQQVKSYPLTFGGGTKVEIKR | 692 | 946
4 | antibody 1444 (antibody, V domains shown) VH: QVQLVQSGAEVKKPGASVKVSCKASGYTFTAYYMHWVRQAPGQGLEWMGWINPNSDDTNYAQKFQGRVTMTRDTSISTAYMELSRLRSDDTAVYYCAREEGVFTIGDRYFDLWGRGTLVSVSS VL: QTVVTQEPSFSVSPGGTVTLTCGLSSGSVSTSYYPSWYQQTPGQAPRTLIYNTNTRSSGVPDRFSGSILGNKAALTITGAQADDESDYYCVLYMGSGIWVFGGGTKLTVLG | 626 | 802
5 | antibody 851 (antibody, V domains shown) VH: QITLKESGPTLVKPTQTLTLTCTFSGFSLSTNGVGMGWIRQPPGKALEWLALIYWDDDQFYSPSLKSRLTITRDTSKNQVVLTMTNMDPVDTATYYCAQAFYESFGFYSWGQGTLVTVSS VL: NFMLTQPHSVSESPGKTVIISCTRSIGSIASNYVQWYQQRPGSAPTIVVFEDNERPSGVPDRFSGSIDRSSNSASLTISGLKTEDEADYYCQSYDGSSELVFGGGTKLTVLG | 545 | 681
6 | antibody 1538 (antibody, V domains shown) VH: EVQLLESGGGLVQPGGSLRLSCAASGFTFSSYAMSWVRQAPGKGLEWVSGISDSGGSTYYADYVKGRFTISRDNSKDTLYLQMNSLRAEDTAVYYCAKDRGNEYALTHYYYYAMDVWGQGTTVTVSS VL: DIQMTQSPSSLSASVGDRVTITCRASQSISSYLNWYQQKPGKAPKLLIYAAYSLQSGVPSRFSGGGSGTDFTLTISSLQPEDFATYFCQQSYSTPITFGQGTRLEIKR | 706 | 928
7 | antibody 923 (antibody, V domains shown) VH: EVQLVESGGGVVRPGGSLRLSCAASGFIFDDYDMTWVRQAPGKGLEWVSGISWNGGNTGYADSVKGRFTISRDNAKNSLYLQMNSLRAEDTALYHCAVIMSPIPRYSGYDWAGGAFDIWGQGTMVTVSS VL: SSELTQDPAVSVALGQTVRITCQGDSLRSYYASWYQQKPGQVPILVIYDKNNRPSGIPDRFSGSSSGNTASLTITGAQAEDEADYYCNSRDSSGNAVVFGGGTKLTVLG | 604 | 435
